# Laboratory results taken from the supplement of paper PMC6755084.
# System: F1*sub RNA substrate (template-directed ligation)
# Assay: fraction ligated after 30 min (ligated reads / total reads); higher = more ligase activity; sequences stand for … in GAGACCGCAACTGAAAAGTTGT…AGTTCTGCACGTAGAAGCAAAAGGC
# Conditions: 42 °C
# Procedure, shortened: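 Templates from an oligo pool were PCR-amplified, transcribed with T7 and gel-purified to give the ribozyme variants. Ligated and unligated products were separated on gel, reverse transcribed using barcoded primers, and read on a MiSeq. A quality filter of ≥20 was applied to core bases. Fraction ligated was taken as ligated reads as a share of all reads per variant.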
row,Sequence,fraction ligated
1,TACATTGTCGAAGACACTTTGGATGGGTTGA [3d552],0.0671
2,TACATTGTCGTAAACACTTTGGATGGGTTGA [3d554],0.0244
3,TACATTGTCGTAAGAACTTTGGATGGGTTGA [3d556],0.0064
4,TACATTGTCGTAAGACACTTGGATGGGTTGA [3d559],0.19
5,TACATTGTCGTAAGACACTTTGATGGGTTGA [3d560],0.232
6,TACATTGTCGTAAGACACTTTGGAGGGTTGA [3d562],0.16
7,TACATTGTCGTAAGACACTTTGGATGGGTTA [3d564],0.0607
8,TACATTGTCGTAAGACACTTTGGATGGGTTG [3d565],0.163
9,TACATTGTCGTAAGACACTTTGGATGGGTTGA [2d49],0.223
10,TACATTGTCGTAAGACACTTTGGATGGTTGA [3d563],0.303
11,TACATTGTCGTAAGACACTTTGGTGGGTTGA [3d561],0.144
12,TACATTGTCGTAAGACATTTGGATGGGTTGA [3d558],0.298
13,TACATTGTCGTAAGACCTTTGGATGGGTTGA [3d557],0.214
14,TACATTGTCGTAAGCACTTTGGATGGGTTGA [3d555],0.041
15,TACATTGTCGTAGACACTTTGGATGGGTTGA [3d553],0.0879
16,TACATTGTCTAAGACACTTTGGATGGGTTGA [3d551],0.0666
17,TACATTGTGTAAGACACTTTGGATGGGTTGA [3d550],0.0317
18,TACATTTCGTAAGACACTTTGGATGGGTTGA [3d548],0.0271
19,TACCTGTCGTAAGACACTTTGGATGGGTTGA [3d528],0.655
20,TACCTTGCGTAAGACACTTTGGATGGGTTGA [3d530],0.392
21,TACCTTGTCGAAGACACTTTGGATGGGTTGA [3d533],0.676

row,Sequence,fraction ligated
1,TACCTTGTCGTAAACACTTTGGATGGGTTGA [3d535],0.418
2,TACCTTGTCGTAAGAACTTTGGATGGGTTGA [3d537],0.253
3,TACCTTGTCGTAAGACACTTGGATGGGTTGA [3d540],0.746
4,TACCTTGTCGTAAGACACTTTGATGGGTTGA [3d541],0.304
5,TACCTTGTCGTAAGACACTTTGGAGGGTTGA [3d543],0.24
6,TACCTTGTCGTAAGACACTTTGGATGGGTTA [3d545],0.548
7,TACCTTGTCGTAAGACACTTTGGATGGGTTG [3d546],0.719
8,TACCTTGTCGTAAGACACTTTGGATGGGTTGA [2d48],0.772
9,TACCTTGTCGTAAGACACTTTGGATGGTTGA [3d544],0.233
10,TACCTTGTCGTAAGACACTTTGGTGGGTTGA [3d542],0.744
11,TACCTTGTCGTAAGACATTTGGATGGGTTGA [3d539],0.749
12,TACCTTGTCGTAAGACCTTTGGATGGGTTGA [3d538],0.734
13,TACCTTGTCGTAAGCACTTTGGATGGGTTGA [3d536],0.668
14,TACCTTGTCGTAGACACTTTGGATGGGTTGA [3d534],0.697
15,TACCTTGTCTAAGACACTTTGGATGGGTTGA [3d532],0.685
16,TACCTTGTGTAAGACACTTTGGATGGGTTGA [3d531],0.795
17,TACCTTTCGTAAGACACTTTGGATGGGTTGA [3d529],0.435
18,TACTTGTCGTAAGACACTTTGGATGGGTTGA [3d2],0.486
19,TATACGTCGTAAGACACTTTGGATGGGTTGA [3d777],0.735
20,TATACTGCGTAAGACACTTTGGATGGGTTGA [3d779],0.779
21,TATACTGTCGAAGACACTTTGGATGGGTTGA [3d782],0.71

row,Sequence,fraction ligated
1,TATACTGTCGTAAACACTTTGGATGGGTTGA [3d784],0.721
2,TATACTGTCGTAAGAACTTTGGATGGGTTGA [3d786],0.809
3,TATACTGTCGTAAGACACTTGGATGGGTTGA [3d789],0.803
4,TATACTGTCGTAAGACACTTTGATGGGTTGA [3d790],0.743
5,TATACTGTCGTAAGACACTTTGGAGGGTTGA [3d792],0.042
6,TATACTGTCGTAAGACACTTTGGATGGGTTA [3d794],0.0511
7,TATACTGTCGTAAGACACTTTGGATGGGTTG [3d795],0.683
8,TATACTGTCGTAAGACACTTTGGATGGGTTGA [2d71],0.797
9,TATACTGTCGTAAGACACTTTGGATGGTTGA [3d793],0.132
10,TATACTGTCGTAAGACACTTTGGTGGGTTGA [3d791],0.0244
11,TATACTGTCGTAAGACATTTGGATGGGTTGA [3d788],0.756
12,TATACTGTCGTAAGACCTTTGGATGGGTTGA [3d787],0.765
13,TATACTGTCGTAAGCACTTTGGATGGGTTGA [3d785],0.759
14,TATACTGTCGTAGACACTTTGGATGGGTTGA [3d783],0.757
15,TATACTGTCTAAGACACTTTGGATGGGTTGA [3d781],0.651
16,TATACTGTGTAAGACACTTTGGATGGGTTGA [3d780],0.8
17,TATACTTCGTAAGACACTTTGGATGGGTTGA [3d778],0.724
18,TATACTTGCGAAGACACTTTGGATGGGTTGA [3d814],0.649
19,TATACTTGCGTAAACACTTTGGATGGGTTGA [3d816],0.464
20,TATACTTGCGTAAGAACTTTGGATGGGTTGA [3d818],0.768
21,TATACTTGCGTAAGACACTTGGATGGGTTGA [3d821],0.485

row,Sequence,fraction ligated
1,TATACTTGCGTAAGACACTTTGATGGGTTGA [3d822],0.285
2,TATACTTGCGTAAGACACTTTGGAGGGTTGA [3d824],0.0191
3,TATACTTGCGTAAGACACTTTGGATGGGTTA [3d826],0.0217
4,TATACTTGCGTAAGACACTTTGGATGGGTTG [3d827],0.272
5,TATACTTGCGTAAGACACTTTGGATGGGTTGA [2d73],0.703
6,TATACTTGCGTAAGACACTTTGGATGGTTGA [3d825],0.0234
7,TATACTTGCGTAAGACACTTTGGTGGGTTGA [3d823],0.014
8,TATACTTGCGTAAGACATTTGGATGGGTTGA [3d820],0.722
9,TATACTTGCGTAAGACCTTTGGATGGGTTGA [3d819],0.629
10,TATACTTGCGTAAGCACTTTGGATGGGTTGA [3d817],0.739
11,TATACTTGCGTAGACACTTTGGATGGGTTGA [3d815],0.435
12,TATACTTGCTAAGACACTTTGGATGGGTTGA [3d813],0.669
13,TATACTTGGTAAGACACTTTGGATGGGTTGA [3d812],0.653
14,TATACTTGTCAAGACACTTTGGATGGGTTGA [3d843],0.705
15,TATACTTGTCGAAACACTTTGGATGGGTTGA [3d858],0.756
16,TATACTTGTCGAAGAACTTTGGATGGGTTGA [3d860],0.748
17,TATACTTGTCGAAGACACTTGGATGGGTTGA [3d863],0.743
18,TATACTTGTCGAAGACACTTTGATGGGTTGA [3d864],0.755
19,TATACTTGTCGAAGACACTTTGGAGGGTTGA [3d866],0.0186
20,TATACTTGTCGAAGACACTTTGGATGGGTTA [3d868],0.0412
21,TATACTTGTCGAAGACACTTTGGATGGGTTG [3d869],0.61
